Laboratory results taken from patent US20170081386A1 (APOGENIX, published 2017).

T1: TRAIL-Receptor 1-Fc (R&D Systems) (UniProt O00220 24-239, limits assumed)
T1 construct: Bought reagent; also called Fc-fusion protein of TRAIL-Receptor 1; not shown: Fc part of the bought fusion
T1 sequence (looked up): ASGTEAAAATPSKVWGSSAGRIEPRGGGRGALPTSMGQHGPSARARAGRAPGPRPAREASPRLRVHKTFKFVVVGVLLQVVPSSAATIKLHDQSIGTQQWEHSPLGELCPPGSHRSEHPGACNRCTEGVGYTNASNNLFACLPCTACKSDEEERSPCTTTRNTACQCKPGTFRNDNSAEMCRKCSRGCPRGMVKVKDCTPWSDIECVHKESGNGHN


Key:
[1] = biological target: T1, TRAIL-Receptor 1-Fc (R&D Systems); experiment: Streptactin-ELISA (FIG. 14A), supernatant immobilized, constant concentration of TRAIL-Receptor 1-Fc
Protocol: (§1) To determine the binding of receptors to constructed ligands, streptactin-coated 96-well microplates were used. Therefore, supernatants from transiently transfected HEK293 cells, mouse sera or purified proteins were immobilized on streptactin-plates (IBA GmbH) for 1-3 hours in PBS. Samples were diluted in ELISA binding/blocking buffer (PBS, 0.1% Tween-20, 20% SuperBlock T20-PBS (Pierce)). Plates were washed with PBS+0.1% Tween-20 and incubated with mouse-anti-TRAIL antibody (Pharmingen, clone RIK-2), TRAIL-Receptor 1-Fc (R&D Systems), TRAIL-Receptor 2-Fc (R&D Systems), TACl-Fc (R&D Systems) or HVEM-Fc (R&D Systems) for one hour at room temperature. Plates were again washed and Fc-proteins were detected with anti-human- or anti-mouse-Fc-specific peroxidase-conjugated antibodies (Sigma). Colour reaction was done by addition of 100 μl per well of TMB substrate (Kem-En-Tec Diagnostics) and the absorbance at 450 nm and 630 nm was determined with an ELISA reader after addition of 25 μl of 25% H₂SO₄ as stop-solution. Values were calculated as 450 nm-630 nm with MS Excel.
The selectivity of TRAIL-Receptor 1 or TRAIL-Receptor 2 towards fusion proteins of SPD/ccSPD and TRAIL, TRAILR1mut and TRAILR2mut was shown by Streptactin-ELISA. Therefore, TRAIL-SPD-fusion proteins in supernatants from transiently transfected HEK293 cells were immobilized on Streptactin coated microplates. Cell supernatant from untransfected cells served as negative control. Specifically bound proteins were detected with constant (A, B) or varying (C, D) concentrations of either TRAIL-Receptor 1-Fc or TRAIL-Receptor 2-Fc. As shown in (A), the ligand TRAILR1mut fused to SPD variants is deteced by TRAIL-Receptor 1, whereas the ligand TRAILR2mut is not. As shown in (B), the ligand TRAILR2mut is preferentially detected by TRAIL-Receptor 2, whereas TRAILR1mut-and TRAIL wild-type constructs are equally well detected. As shown in C, TRAIL-Receptor 1-Fc bound to TRAIL-R1 mut-ASPD and TRAIL-ASPD equally well over the whole receptor titration range, whereas TRAIL-R2mut-ASPD is not detected. As shown in D, TRAIL-Receptor 2-Fc bound to TRAIL-R2mut-ASPD and TRAIL-ASPD equally well over the receptor titration range analyzed, whereas the signal for TRAIL-R1mut-ASPD decreased rapidely with decreasing concentrations of receptor.

[2] = biological target: T1, TRAIL-Receptor 1-Fc (R&D Systems); experiment: Streptactin-ELISA, purified trimeric ligand immobilized via Strep-tag II, receptor-Fc detection
Protocol: as §1
Varying concentrations (0-10 microgram/ml) of affinity and SEC purified, trimeric LIGHT-ASPD were used for immobilized via the Strep-tag II on Streptactin-coated microplates. LIGHT-ASPD was then detected in a ELISA set-up using 100 ng/ml of Fc-fusion proteins of the receptors HVEM and TRAIL-Receptor 1, respectively. […]

Binder | binding result [1] | binding result [2]
LIGHT-ASPD (ligand, also called Sp-LIGHT-ASPD; LIGHT fusion protein) EVNPAAHLTGANSSLTGSGGPLLWETQLGLAFLRGLSYHDGALVVTKAGYYYIYSKVQLGGVGCPLGLASTITHGLYKRTPRYPEELELLVSQQSPCGRATSSSRVWWDSSFLGGVVHLEAGEEVVVRVLDERLVRLRDGTRSYFGAFMVGSSGSSGSSGSGLPDVASLRQQVEALQGQVQHLQAAFSQYKKVELFPNGQSVGEKIFKTAGFVKPFTEAQLLCTQAGGQLASPRSAAENAALQQLVVAKNEAAFLSMTDSKTEGKFTYPTGESLVYSNWAPGEPNDDGGSEDCVEIFTNGKWNDRACGEKRLVVCEFGGSPSSSSSSAWSHPQFEK | – | no binding
TRAILR2mut-D-CCSPD (ligand, it is assembled from the construct description; also called TRAILR2mut (member of the SPD variants)) QRVAAHITGTRGRSNTLSSPNSKNEKALGRKINSWESSRSGHSFLSNLHLRNGELVIHEKGFYYIYSQTQFKFREEIKENTKNDKQMVQYIYKYTSYPDPILLMKSARNSCWSKDAEYGLYSIYQGGIFELKENDRIFVSVTNERLLQMDHEASFFGAFLVGSGLPDVASLRQQVEALQGQVQHLQAAFSQYKKVELFPNGPSSSSSSAWSHPQFEK | no binding | –
TRAILR2mut-D-SPD (ligand, it is assembled from the construct description; also called TRAILR2mut (member of the SPD variants)) QRVAAHITGTRGRSNTLSSPNSKNEKALGRKINSWESSRSGHSFLSNLHLRNGELVIHEKGFYYIYSQTQFKFREEIKENTKNDKQMVQYIYKYTSYPDPILLMKSARNSCWSKDAEYGLYSIYQGGIFELKENDRIFVSVTNERLLQMDHEASFFGAFLVGSGLPDVASLRQQVEALQGQVQHLQAAFSQYKKVELFPNGQSVGEKIFKTAGFVKPFTEAQLLCTQAGGQLASPRSAAENAALQQLVVAKNEAAFLSMTDSKTEGKFTYPTGESLVYSNWAPGEPNDDGGSEDCVEIFTNGKWNDRACGEKRLVVCEFGGSPSSSSSSAWSHPQFEK | no binding | –

Second part, the binder after the results:

binding result [1] | binding result [2] | Binder
no binding | – | TRAILR2mut-ASPD (ligand, TRAIL-Receptor 2 selective mutein; homotrimer by SEC; also called Sp-TRAILR2mut-ASPD) QRVAAHITGTRGRSNTLSSPNSKNEKALGRKINSWESSRSGHSFLSNLHLRNGELVIHEKGFYYIYSQTQFKFREEIKENTKNDKQMVQYIYKYTSYPDPILLMKSARNSCWSKDAEYGLYSIYQGGIFELKENDRIFVSVTNERLLQMDHEASFFGAFLVGSSGSSGSSGSGLPDVASLRQQVEALQGQVQHLQAAFSQYKKVELFPNGQSVGEKIFKTAGFVKPFTEAQLLCTQAGGQLASPRSAAENAALQQLVVAKNEAAFLSMTDSKTEGKFTYPTGESLVYSNWAPGEPNDDGGSEDCVEIFTNGKWNDRACGEKRLVVCEFGGSPSSSSSSAWSHPQFEK
no binding | – | TRAILR2mut-A-CCSPD (ligand, it is assembled from the construct description; also called TRAILR2mut (member of the SPD variants)) QRVAAHITGTRGRSNTLSSPNSKNEKALGRKINSWESSRSGHSFLSNLHLRNGELVIHEKGFYYIYSQTQFKFREEIKENTKNDKQMVQYIYKYTSYPDPILLMKSARNSCWSKDAEYGLYSIYQGGIFELKENDRIFVSVTNERLLQMDHEASFFGAFLVGSSGSSGSSGSGLPDVASLRQQVEALQGQVQHLQAAFSQYKKVELFPNGPSSSSSSAWSHPQFEK
